Experimental data reported in the domain aggregation screens of Martell et al. (2025).

Assay: soluble fraction after stress (log2 fold change); higher = more stays soluble; pooled small domains, quantitative proteomics
Settings: stress: pH 4
In short: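 Aggregation propensity is read out as the fold change in how much of each domain remains soluble after acid stress. The custom small-domain libraries were pooled, held at pH 4 and analysed with high-throughput quantitative proteomics. On the log2 scale used, higher values mean more of the domain stayed soluble.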

HMSFMFEISVIRSQYNMQDPESKTGFYNAIAKKLLEFPEKLERDNYTEAVAREYMIPETDLKNLVNSMGG
soluble fraction (log2): -1.66

HMNAISIDEAKKIALAKVSGASDQHIRIEADHDDGRLVYEGEIHYGRVEYEFEIDGSTGAIIEWDADRK
soluble fraction (log2): -0.0156

HMINEVVSLRDVPSFIGKAKRDVIRIAEENNLKIKINGNGYVKEQTPNPGNKYKSNQEIKVFLEPG
soluble fraction (log2): 0.0157

HMATVIDVATTLGRPITDPDEQRQVLNWIGKTERIISARLGDLAALDRQILADVISEVVARRARN
soluble fraction (log2): -0.726

HMNSEEINDVRKAVDELPTHLREILLLNYFQQMSYVQISDSLEIPLGTVKSRLHAAVAAFRNAWQSSQEE
soluble fraction (log2): -0.154

HMQLLDIGSAVRIIREPYFGRLGTVVELPPELMEIESGTHARVLKAKLDDGTVAVVPRANVEIIVE
soluble fraction (log2): -1.34

HMPTPLTPREHEIANLIAQGLSNREIADELVISPATAARHVANILAKLGFSSRTQVASWATRHD
soluble fraction (log2): -0.237

HMTAFSEQLIKLRKQKGLSQEQLGAAVGVTRQTVSKWELGDTTPELGKLVQLSDYFQLSIDELVGH
soluble fraction (log2): 0.177

HMAHPRTHEALNPLWEKYLGPNAGNDFFLSGGTSLKALMFLKDLEKTLNKRIAIHAFFKDPTYEHVVSD
soluble fraction (log2): -0.467

HMELSSRQAMIVDIVRKYEPITSEQIADKLNLTRSALRPDLAVLTMIGILEARPRVGYFFTGK
soluble fraction (log2): -0.269

HMTQFSASSERAGAGGAYRTTLRAMEQNGDLLQISILLPDAVTAKHAATVWPERAQAIYTAILSELLK
soluble fraction (log2): -0.167

HMSDSGLPLPRFVSLGDDRVNARAGPGFRFPINWVYLRKNFPVEVIDEFGHWRRIKDIDGIEGWIHLSML
soluble fraction (log2): -0.734

HMSATPQRMTIIDALDSSGKNLSAYELLDLLNDKGQLFNISTIYRVLDFWIEMGIVHKINSSNTYL
soluble fraction (log2): 0.132

HMSAETRSWTDAQGNQTQAVLRGFDGGDVLLQNAAGKTLRVPVKNLSEDDQRYVVLNISTLID
soluble fraction (log2): -0.594

HMYIVVPDLSKKDINEVANILAAQSLRFQVIDSANFRSDFPKNAVISQKPLAGSEVKVNKKIYLQLNPS
soluble fraction (log2): -0.608

HMAQISDESALYDLVKSVLDANPQSIADYKAGRDRALGFLMGQAMKLSKGKANPPVINKILKEMLDK
soluble fraction (log2): 0.292

HMAKNIEVPNLVGSTISVARNDLKQLGLHVIVRDSVWSEDKKIDTILEQFPEPGKKLKPEGVVQVVVSI
soluble fraction (log2): 0.0706

HMETLKINTHLGTLNLKKRGKKGTWQINIYFKNIEGDNHYRQSTGTNQLELAKAKAMNMITTEYSNRLAGI
soluble fraction (log2): -0.259

HMKQISNTDELETMVKKIIDDNEEQVNKYRGGNEKLFGWFVGQAMKNTGGTANPKVVNEILSKLLK
soluble fraction (log2): ≥ 0.43

HMSSPVGIAQATTYVYVRAGHSMQAAKVGVLSPGEKVGVTGRSAQGFSEVVYNGVHRWVGSRYLSPT
soluble fraction (log2): ≥ 0.43

HMTIYLSENIKRLRLEKELTQETLSEFLGVTSQSVSNWERGESYPDITMLPEIADFFKVSVDELLGVNRAE
soluble fraction (log2): -1.66

HMKNLTERQQQIIALISGNPLITRAEIASAIGFSVKTIERELSILSEIVSYVGSKKGGHWEIQT
soluble fraction (log2): -0.49

HMNHLSYEQRLKIKEMLDGGFKKIDIARALGVHNATIYREIERGSVNGIYNPNKSEEQYRDHLSEK
soluble fraction (log2): 0.0704

HMGSDLVAWAQTRIGRHPEEAADVIAALIDRHGEARVRAASRSLLARKFAHASDLRTAIDAAIG
soluble fraction (log2): 0.0531

HMSNEWIEISAKTVDDAINEGLIRLGTTTDKMDVEVLEKESAGFLGFIGKHDAKIRVRFKEV
soluble fraction (log2): -0.608

HMAGLKERLFYFIEYKGLTVQSFEKTVGLSNGAVSKMGDNTRRSTIDKISNFFGDLNKNWLLTGEGEMLI
soluble fraction (log2): -0.638

HMEEFLSFIADILEVDKNTLTLETSQDDVETWDSLMQLRLLGEIEAKYGVMIPMERISTIKKLNDFYQYIK
soluble fraction (log2): -1.76

HMDNMTEMQKAVTALIEKSGGSIDNLSVIYDHLKKKYPSFDLKDYGYSRFSSFLRSMENIMVRGNAVTLRS
soluble fraction (log2): 0.0508

HMVDIEQAEFLSRQFDLLLARLDDPTIEWQDIADIRSEYTGENEHRDTIRKGSKLFYEYLQAGWIKN
soluble fraction (log2): -0.809

HMNEIDDYDIQLLEYLSKGVSQEAMESVFKQAGITPNSKSTIEKRISKLKIYFKALNTTHLVSITKDLGL
soluble fraction (log2): -1.27

HMPSQLPLAFARRHGVLLRGFSNGLAQLTVRPEVSTLSLAETRRHLGVPLALEKVTTERFDQLLREAYEA
soluble fraction (log2): -0.152

HMSELSEVIEKTFEELPEELKLIVKLREIDDLSYDEISNKIGIPIGTVRSRLHRAREILINIIKN
soluble fraction (log2): -1.01

HMSAPTAFSERELELLAGMRRGASNKAMAEQLFISVNTVKYHRANLMRKLGARDRNEALEVAARLG
soluble fraction (log2): -0.179

HMQRDERYVYHTVLAGETIYSLSRKFNVTMDELLESNPALRSGVLTTGSEIRVLKAQMAQNFD
soluble fraction (log2): 0.383

HMKLTPKQQQIYDFISSFADEHGYPPSVREIAQAVNLKSPATVHFHLKGLREAGYISQAEGKTRAITI
soluble fraction (log2): -0.136

HMNVNEIREMYPEGTQIVLTEMRGENQMPYGLKGTVKFVDDAGQIHMKWENGSSLALNINEDTFEKVE
soluble fraction (log2): -0.471

HMVLENLKKFIDSKGISVSAFEKSIGMSNNSFRKSLNSGGHIGSDKLENILKIYPELNPVWLLQGEGEML
soluble fraction (log2): -0.0839

HMTNQEFNAAFKPFLDYFPTTEMTKEKINIYYLALSDLSKEQLGSAFISMVKNRVYKNFPQVAEIRQYATN
soluble fraction (log2): -0.456

HMSLSKQETEFLTTFSASGKRVFTYQQATDYWQSKVAATNVLGRLVRKGWLQRLERGLYMIIPLEAGPERF
soluble fraction (log2): -0.807

HMQSHIVPDVKSQHIAQAKALLESKQMKAVVIDSNFVKGLPAGIVLDQTPIGGARVKENRTIYLTINTL
soluble fraction (log2): 0.0867

HMDYKYYIVKEPMVVKNLELPVGTRIVYFNTSLFGDSESSRPLKEKNIYQIFFPDDKPLIWGGVPVSLIER
soluble fraction (log2): -0.546

HMIAVLEEGSRFRAINDISGKPFGPEMIIKNGQVIAAGKKILTKPKKLIGKKEGTKFNISGKEYVIKDI
soluble fraction (log2): -0.834

HMDPLPDEVQEVIDMVDGFKAMDELSEADKADVKAAYDAYNALSAEHKAMVPEHIVTFLNRAYDKLFD
soluble fraction (log2): -1.63

HMVRKGEINFDQLSVRARNALRNMNILFEKEILKLTEYDLKSIPNLGVKTTNELLSYIKRLQTNQKEE
soluble fraction (log2): -0.653

HMKQLLHLVIGGELKDVRGIEFEDLSKIDFVGAFPSYKAAYDAWKNAAQRTVDNAEMRYFILHAHR
soluble fraction (log2): -1.37

HMDPKISWESDEKLSANIGHYENSIKPLMGNKYLIELSQLKDKIESHPWVARATIKRIFWNKIHIQLESHD
soluble fraction (log2): 0.108

HMTEKQYIYSIGDRVNIGTDEFEIVNINEKEVSIADVTFPMLVKQISYEEFDRKVKENPFNDHLII
soluble fraction (log2): -1.25

HMQEHAHLWRLMEDNRSFKADYIAFENGIVLLQNLSSGKISQYPITDFSIEDQLLILKRHELTAHINAN
soluble fraction (log2): -0.0419

HMLLTLPEDIITMVRQGTLSAGHARVLAGLESDEMKMTLARQTITNEWSVRQLENAVALMRKS
soluble fraction (log2): -0.858

HMDTVIAEVTASILNLRRSAGTSSDIIGKLNKGEKVSIIGGSGNWKNVRTSGGITGWVYHEYLSTY
soluble fraction (log2): -0.183

HMKDLTAIKGVGEFFAKKLSQAGYQSITNLTDVNAKRLQADTGIPLPIAARIIKEAQSLIAET
soluble fraction (log2): -0.00834

HMASMNPVWLEFPNIPWGSAGWRMGWGEDYMRRWAKWYISLAEVERQSYKSDWPEPQEWEGFYAFMEHGT
soluble fraction (log2): -1.23

HMSTMKSKWFVSSNPIAGVMKYQAQRKKDVNAVDSSENREASGQWYTDKEEAQAIVDKLNAEEQIKEAGK
soluble fraction (log2): 0.0846

HMEPEWVINTDGSNLNEILAIDEVDSRKTFSNDLQEVYRTFGIEAARQILVQEIDAVIESSGA
soluble fraction (log2): -0.675

HMYTVQQLARLAGITPRTLRHYDAIGLLKPTRVGENGYRYYGSEALLRLQSILLYRELDMPLEDIRRVLDS
soluble fraction (log2): -1.23

HMAAEEAFPGGRIVQNAEENRLQILFDEIPGEDVRAALKSHGFRWSPKNKAWQRQLTQNAEYDARRILGI
soluble fraction (log2): -0.033

HMKFNEKQNEVRIAIMNFIIDNKRPFHMKQDGYDALEGITLSGRHEFQDILDVLHSRDGFSADEEGNINF
soluble fraction (log2): -1.69

HMKPTVKKLLAALPELRSGQPLHLSVATRKLRDAGLLGKNASSPTLFRNYVAQFELIPENQPNAVRYR
soluble fraction (log2): 0.268

HMHSIFPVIRSTSFPTKSNDGELFITSDHTAETRIYYALDLGNTYRLIDQKVMNEINLTESLVKETARF
soluble fraction (log2): -1.63

HMTSSVIIPKLIGKTEEEAKVALAGLNVQVLYETHGDQANGIVIKQSFEEGTKVIKGVSIVITVNKVS
soluble fraction (log2): -0.256

HMTPDLSEFKERLRQILPGEPIEVRTANDGIVLSGTVTSIAALDRALDLAERYAPDKVSNLLSVG
soluble fraction (log2): 0.365

HMEISTEVPLRGGTISEEALEALNRLPGVTASNIDGKSISVDVADNAELRVSDINQVLAVHSPDTRV
soluble fraction (log2): -0.707

HMNPSFTMGTRIKEYIDAHYLEDLKLADIAEALHINLYYLSHTFKDLTGSSPMQYIIRRRIEE
soluble fraction (log2): -0.603

HMTAMQYVTIKDIADALGISKSSVSRALAGDVHNVSAQTIERVRAKALEMGYLRNNAAVNLR
soluble fraction (log2): 0.22

HMKYSELLLEIILQSKEHPTAEQIFIEAKKRNPKIVQATVYNNLKNLLAQGRVIRISNPGQPDRYDNT
soluble fraction (log2): 0.0505

HMSQEHTVPDYKDMEATVVYADLTQKGLNYEIAQETSPTIKEGNVTQTIPGMNEKVVSGDTITVFVSTGTG
soluble fraction (log2): -0.907

HMETGFADTLRKFRKEADMTQEKLAEALGVTTGAVYKWENGRSTPEVRLLVEMADLFGTSVDALLDYKVR
soluble fraction (log2): -0.723

HMGNFNDMLKYLRVREKMSQAELADKLGVSKSTVGMYELGKREPDFETLEAIADLFNVDMNFLLGK
soluble fraction (log2): -0.439

HMENVLFVNVLSMTVRELAEMMKIPVNKIIQDSFSKGIMMNPNQRLEYDNFAELAKKYGITVKI
soluble fraction (log2): -0.691

HMGDLDLVTFGQRLRHLRRSRNMTLSELGERVGRAPSQLSLLENGKREPKLSLLTALAKALDVSVEEL
soluble fraction (log2): 0.178

HMTTTAGTAVVQTGNSGKLNLREQAYSNAGILGRYSNGTIVTVLQKGSAWSYVEVQGQKGYMMSKFLRFT
soluble fraction (log2): -0.386

HMFNDGEIAIYTDPRGDAGETQIWKRGKGYYGQNDSFDFEAKDKKELEMKLKRWGYVLIAGSIDE
soluble fraction (log2): -0.0774

HMLQFTYPRLHTKKSWYVDFMSFDPGAGKMRRKKFMLDGIPKITDRRKRAAELIEVLTKQLRAGWSPWVNV
soluble fraction (log2): 0.403

HMPQQVFKREDLQKWGLTGQADSRKRREKLGQLLGIGYGNGKQLIHRLNMFQVDRATFEQAIKQINQEEDH
soluble fraction (log2): 0.00776

HMNTPHLTPREREVLKGIVDGLINKEIAARMGVSVATVITHRNNLTEKLGTRSVSALTIFAVMHGIVR
soluble fraction (log2): -0.323
